# Measurements published in patent publication US20040014670A1 (AJINOMOTO, published 2004).
# Columns and labels:
# [1] = molecular target: rabbit pulmonal angiotensin converting enzyme (Sigma) (rabbit) (UniProt P12822); assay: cell-based or functional assay
# [2] = molecular target: T1, rabbit pulmonal angiotensin converting enzyme (Sigma) (rabbit, UniProt P12822 34-1310, limits assumed); assay: cell-based or functional assay
# T1 sequence (looked up): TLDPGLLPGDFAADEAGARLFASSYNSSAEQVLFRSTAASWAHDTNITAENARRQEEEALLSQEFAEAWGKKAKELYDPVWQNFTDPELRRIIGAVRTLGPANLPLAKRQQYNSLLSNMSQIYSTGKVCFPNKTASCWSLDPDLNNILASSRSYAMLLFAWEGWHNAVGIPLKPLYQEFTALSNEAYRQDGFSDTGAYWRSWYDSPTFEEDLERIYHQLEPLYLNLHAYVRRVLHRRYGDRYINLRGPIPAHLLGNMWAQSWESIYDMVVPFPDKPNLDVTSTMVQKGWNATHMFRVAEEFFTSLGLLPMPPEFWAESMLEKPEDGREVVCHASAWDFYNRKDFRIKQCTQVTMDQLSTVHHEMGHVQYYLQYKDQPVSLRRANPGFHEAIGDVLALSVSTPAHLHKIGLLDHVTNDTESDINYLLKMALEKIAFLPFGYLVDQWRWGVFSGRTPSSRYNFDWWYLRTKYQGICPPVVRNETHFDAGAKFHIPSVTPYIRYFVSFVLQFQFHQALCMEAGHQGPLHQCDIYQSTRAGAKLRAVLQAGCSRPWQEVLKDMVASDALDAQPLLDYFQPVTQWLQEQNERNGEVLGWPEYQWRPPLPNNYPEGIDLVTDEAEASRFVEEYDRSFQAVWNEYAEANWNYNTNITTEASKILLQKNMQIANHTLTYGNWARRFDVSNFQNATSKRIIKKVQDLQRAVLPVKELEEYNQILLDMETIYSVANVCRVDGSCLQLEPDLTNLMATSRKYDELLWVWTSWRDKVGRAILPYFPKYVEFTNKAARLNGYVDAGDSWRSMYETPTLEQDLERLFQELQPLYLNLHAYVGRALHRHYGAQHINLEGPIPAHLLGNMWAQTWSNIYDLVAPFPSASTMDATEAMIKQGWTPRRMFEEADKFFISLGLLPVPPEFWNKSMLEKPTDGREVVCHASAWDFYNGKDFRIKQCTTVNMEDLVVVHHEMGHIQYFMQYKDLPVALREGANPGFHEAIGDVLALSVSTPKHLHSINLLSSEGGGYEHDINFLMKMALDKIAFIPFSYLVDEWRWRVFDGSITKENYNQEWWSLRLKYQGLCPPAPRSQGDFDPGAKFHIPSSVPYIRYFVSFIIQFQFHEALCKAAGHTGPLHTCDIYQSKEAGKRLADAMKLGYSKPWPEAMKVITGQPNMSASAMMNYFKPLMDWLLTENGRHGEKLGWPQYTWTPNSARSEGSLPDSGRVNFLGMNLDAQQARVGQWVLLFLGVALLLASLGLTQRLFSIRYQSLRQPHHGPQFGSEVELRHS
Molecule,"IC50 (µM), inhibition of angiotensin converting enzyme activity (colorimetry at 505 nm, substrate p-hydroxyl benzoyl glycyl-L-histidyl-L-leucine) [2]",also measured
Bradykinin potentiator C (peptide),,"IC50 (µM), inhibition of angiotensin converting enzyme activity (colorimetry at 505 nm, substrate p-hydroxyl benzoyl glycyl-L-histidyl-L-leucine) [1]: 35 µM"
soybean protein hydrolysates prepared with protease D3,,"IC50 value, the concentration for 50% inhibition against ACE [1]: 180 µg/mL"
NWGPLV [Asn-Trp-Gly-Pro-Leu-Val],21 µM,
IPPGVPYWT [Ile-Pro-Pro-Gly-Val-Pro-Tyr-Trp-Thr],64 µM,
PNNKPFQ [Pro-Asn-Asn-Lys-Pro-Phe-Gln],33 µM,
